Reference: the supplement of paper PMC9732359
± gives the uncertainty stated by the source.

Experiment: protein stability index of a GFP-peptide fusion (yeast GPS) (PSI 1-4); higher = more stable; sorted into four equal gates, so the index is relative within each strain
Summary of the method: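 Plasmids in a pooled yeast library fused tiled 17-residue yeast protein peptides downstream of GFP and also expressed Cherry. Mid-log cultures grown without leucine were sorted into four equal gates by GFP/Cherry fluorescence ratio. Each gate's plasmids were PCR-amplified and Illumina-sequenced, and reads were matched to strains by barcodes. The protein stability index is derived by multiplying each gate's read frequency by its gate number and summing the results.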

Sequence: NNKNNSITTGNDNENIV [MED2]
- protein stability index (doa10∆): 2.89 ± 0.046
- protein stability index (pdr5∆): 2.94 ± 0.047
- protein stability index (san1∆): 2.95 ± 0.044
- protein stability index (ubr1∆): 2.99 ± 0.046

Sequence: ISPSAPSKDSFTKYKPA [YAR002W/NUP60]
- protein stability index (doa10∆): 2.65 ± 0.079
- protein stability index (pdr5∆): 2.9 ± 0.069
- protein stability index (san1∆): 2.69 ± 0.094
- protein stability index (ubr1∆): 2.98 ± 0.042

Sequence: ELVKAHLGERAASVIGM [RPC82]
- protein stability index (doa10∆): 2.55 ± 0.29
- protein stability index (pdr5∆): 2.77 ± 0.28
- protein stability index (san1∆): 2.57 ± 0.22
- protein stability index (ubr1∆): 2.52 ± 0.086

Sequence: NDKLIVDNDNWVYKTKG [RPN1]
- protein stability index (doa10∆): 2.81 ± 0.14
- protein stability index (pdr5∆): 2.77 ± 0.18
- protein stability index (san1∆): 3.18 ± 0.28

Sequence: QVEYALEAIKQGSVTVG [PRE5]
- protein stability index (doa10∆): 2.92 ± 0.12
- protein stability index (pdr5∆): 3.33 ± 0.21
- protein stability index (san1∆): 3.14 ± 0.17
- protein stability index (ubr1∆): 3.09 ± 0.18

Sequence: ARKELPIFDYIHIDALE [SIR3]
- protein stability index (doa10∆): 2.3 ± 0.053
- protein stability index (pdr5∆): 2.34 ± 0.056
- protein stability index (san1∆): 2.21 ± 0.059
- protein stability index (ubr1∆): 2.5 ± 0.047

Sequence: LPKVRYNVEKVKRLMDF [NSL1]
- protein stability index (doa10∆): 1.8 ± 0.07
- protein stability index (pdr5∆): 2.38 ± 0.065
- protein stability index (san1∆): 1.96 ± 0.13
- protein stability index (ubr1∆): 2.15 ± 0.081

Sequence: HLCSGILSSVNRTVLLK [SRB8]
- protein stability index (doa10∆): 1.42 ± 0.073
- protein stability index (pdr5∆): 1.67 ± 0.15
- protein stability index (san1∆): 1.41 ± 0.17
- protein stability index (ubr1∆): 1.67 ± 0.047

Sequence: FITRLAQGLLHLGKGTM [RPN1]
- protein stability index (doa10∆): 2.9 ± 0.086
- protein stability index (pdr5∆): 2.99 ± 0.091
- protein stability index (san1∆): 2.3 ± 0.14
- protein stability index (ubr1∆): 2.23 ± 0.074

Sequence: KIGPLGLSPKKVGEDIA [RPL12A]
- protein stability index (doa10∆): 3.3 ± 0.16
- protein stability index (pdr5∆): 3.2 ± 0.18
- protein stability index (san1∆): 3.27 ± 0.2
- protein stability index (ubr1∆): 3.38 ± 0.24

Sequence: PIPIPAFADRLGQYVQA [PRE10]
- protein stability index (doa10∆): 2.21 ± 0.08
- protein stability index (pdr5∆): 1.95 ± 0.062
- protein stability index (san1∆): 1.75 ± 0.11
- protein stability index (ubr1∆): 2.07 ± 0.097

Sequence: FKRNAVFVGTIFAGAFV [QCR9]
- protein stability index (doa10∆): 1.92 ± 0.064
- protein stability index (pdr5∆): 1.58 ± 0.054
- protein stability index (san1∆): 1.26 ± 0.12
- protein stability index (ubr1∆): 1.67 ± 0.051

Sequence: NNNNKSINKNNKEMHTD [SSN2]
- protein stability index (doa10∆): 3.01 ± 0.087
- protein stability index (pdr5∆): 2.99 ± 0.082
- protein stability index (san1∆): 2.75 ± 0.073
- protein stability index (ubr1∆): 3.17 ± 0.093

Sequence: SLNTKKNEKLILEESLN [SMC3]
- protein stability index (doa10∆): 2.18 ± 0.064
- protein stability index (pdr5∆): 2 ± 0.074
- protein stability index (san1∆): 2.59 ± 0.15
- protein stability index (ubr1∆): 2.6 ± 0.078

Sequence: TNVRLYSLLLASKGIDR [ECM29]
- protein stability index (doa10∆): 2.13 ± 0.048
- protein stability index (pdr5∆): 2.79 ± 0.087
- protein stability index (san1∆): 3.48 ± 0.088
- protein stability index (ubr1∆): 3.33 ± 0.069

Sequence: SSLIKAGLDKGISINNM [RPO31]
- protein stability index (doa10∆): 2.65 ± 0.064
- protein stability index (pdr5∆): 2.7 ± 0.079
- protein stability index (san1∆): 2.76 ± 0.066
- protein stability index (ubr1∆): 2.95 ± 0.058

Sequence: ITHAHSLSNPNSTATMQ [PGD1]
- protein stability index (doa10∆): 2.8 ± 0.055
- protein stability index (pdr5∆): 2.44 ± 0.054
- protein stability index (san1∆): 2.5 ± 0.063
- protein stability index (ubr1∆): 2.86 ± 0.043

Sequence: SKLDYIFKDKEKLVSDL [SMC1]
- protein stability index (doa10∆): 2.89 ± 0.15
- protein stability index (pdr5∆): 3.24 ± 0.085
- protein stability index (san1∆): 3.27 ± 0.2
- protein stability index (ubr1∆): 3.37 ± 0.083

Sequence: NIKKKDTKDALSTRELA [RPC53]
- protein stability index (ubr1∆): 2.7 ± 0.29

Sequence: ITLALADAGIELVDMAG [MTR3]
- protein stability index (doa10∆): 1.89 ± 0.072
- protein stability index (pdr5∆): 2.43 ± 0.065
- protein stability index (san1∆): 2.2 ± 0.1
- protein stability index (ubr1∆): 2.12 ± 0.075

Sequence: RNNVMLLIATNLKEYNK [SRB8]
- protein stability index (doa10∆): 2.44 ± 0.11
- protein stability index (pdr5∆): 2.11 ± 0.099
- protein stability index (san1∆): 2.74 ± 0.081
- protein stability index (ubr1∆): 2.21 ± 0.072

Sequence: IERYPLKVTKKHGAKKV [RPL27A]
- protein stability index (doa10∆): 3.37 ± 0.092
- protein stability index (pdr5∆): 3.6 ± 0.14
- protein stability index (san1∆): 3.54 ± 0.087
- protein stability index (ubr1∆): 3.23 ± 0.1

Sequence: KFPDMGSLWVEFCDEPS [RPB5]
- protein stability index (doa10∆): 2.75 ± 0.044
- protein stability index (pdr5∆): 2.89 ± 0.06
- protein stability index (san1∆): 2.9 ± 0.066
- protein stability index (ubr1∆): 2.96 ± 0.045

Sequence: SAAKASQSRSAKAGLTF [HTA1]
- protein stability index (doa10∆): 3.06 ± 0.081
- protein stability index (pdr5∆): 2.96 ± 0.084
- protein stability index (san1∆): 2.98 ± 0.042
- protein stability index (ubr1∆): 3.05 ± 0.034

Sequence: EVIFSFEGTPPFSLTYV [YMR129W/POM152]
- protein stability index (doa10∆): 2.09 ± 0.051
- protein stability index (pdr5∆): 2.21 ± 0.063
- protein stability index (san1∆): 2.11 ± 0.083
- protein stability index (ubr1∆): 2.25 ± 0.047

Sequence: HVINVGKTWEKLVLAAR [RPS0A]
- protein stability index (doa10∆): 3.41 ± 0.15
- protein stability index (pdr5∆): 3.49 ± 0.21
- protein stability index (san1∆): 3.39 ± 0.13
- protein stability index (ubr1∆): 3.12 ± 0.098

Sequence: PDFEKLLPFVKGNVGFV [RPP0]
- protein stability index (ubr1∆): 1.89 ± 0.19

Sequence: GRRISENGQRDLDRIAA [RPS19A]
- protein stability index (doa10∆): 3.76 ± 0.25
- protein stability index (pdr5∆): 3.42 ± 0.14
- protein stability index (san1∆): 3.4 ± 0.064
- protein stability index (ubr1∆): 3.45 ± 0.17

Sequence: SLTEKFSQTVADNNDLQ [ECM29]
- protein stability index (doa10∆): 2.48 ± 0.049
- protein stability index (pdr5∆): 2.71 ± 0.056
- protein stability index (san1∆): 2.64 ± 0.068
- protein stability index (ubr1∆): 2.35 ± 0.048

Sequence: KMLSCAGADRLQQGMRG [RPL10]
- protein stability index (doa10∆): 3.43 ± 0.12
- protein stability index (pdr5∆): 3.28 ± 0.13
- protein stability index (san1∆): 2.98 ± 0.11
- protein stability index (ubr1∆): 3.32 ± 0.085

Sequence: SYQPMYQRPMQVQGQQQ [SSN3]
- protein stability index (doa10∆): 1.46 ± 0.043
- protein stability index (pdr5∆): 1.71 ± 0.06
- protein stability index (san1∆): 1.92 ± 0.11
- protein stability index (ubr1∆): 1.89 ± 0.054

Sequence: LYDALEPSDLRSWTLTS [YGL100W/SEH1]
- protein stability index (doa10∆): 2.82 ± 0.048
- protein stability index (pdr5∆): 2.79 ± 0.046
- protein stability index (san1∆): 2.78 ± 0.038
- protein stability index (ubr1∆): 3.03 ± 0.049

Sequence: KVDATPEESKPINLQNG [YLR335W/NUP2]
- protein stability index (doa10∆): 2.9 ± 0.088
- protein stability index (pdr5∆): 2.95 ± 0.079
- protein stability index (san1∆): 2.8 ± 0.06
- protein stability index (ubr1∆): 3.21 ± 0.049

Sequence: TPLFPIDRNSTILYLNV [IRR1]
- protein stability index (doa10∆): 2.71 ± 0.083
- protein stability index (pdr5∆): 1.87 ± 0.072
- protein stability index (san1∆): 2.93 ± 0.092
- protein stability index (ubr1∆): 2.69 ± 0.098

Sequence: ALRALQENGTIFRGSLI [YDL088C/ASM4]
- protein stability index (doa10∆): 2.02 ± 0.11
- protein stability index (pdr5∆): 1.68 ± 0.076
- protein stability index (san1∆): 1.28 ± 0.1
- protein stability index (ubr1∆): 1.53 ± 0.092

Sequence: GLARKFHNMLQTLYTGD [SSN3]
- protein stability index (doa10∆): 2.91 ± 0.24
- protein stability index (pdr5∆): 3.25 ± 0.1
- protein stability index (san1∆): 3.01 ± 0.077
- protein stability index (ubr1∆): 2.79 ± 0.16

Sequence: TVEPVYQMHIKTSKDIA [FAS1]
- protein stability index (doa10∆): 1.29 ± 0.044
- protein stability index (pdr5∆): 1.33 ± 0.063
- protein stability index (san1∆): 1.31 ± 0.081
- protein stability index (ubr1∆): 1.35 ± 0.065

Sequence: TAEINCFMHLLVQLFLW [RPN3]
- protein stability index (doa10∆): 1.77 ± 0.063
- protein stability index (pdr5∆): 2.05 ± 0.051
- protein stability index (san1∆): 1.68 ± 0.14
- protein stability index (ubr1∆): 2.73 ± 0.072

Sequence: IAPRRKRLADGLSVTQK [DIS3]
- protein stability index (doa10∆): 3.38 ± 0.088
- protein stability index (pdr5∆): 3.3 ± 0.074
- protein stability index (san1∆): 3.16 ± 0.068
- protein stability index (ubr1∆): 3.1 ± 0.061

Sequence: KLEGSENSEPPALESSP [SNF2]
- protein stability index (doa10∆): 3.09 ± 0.073
- protein stability index (pdr5∆): 2.97 ± 0.064
- protein stability index (san1∆): 3.28 ± 0.071
- protein stability index (ubr1∆): 3.26 ± 0.057

Sequence: ASPSAHTSSSDGNNEIF [RPN4]
- protein stability index (doa10∆): 2.36 ± 0.063
- protein stability index (pdr5∆): 2.73 ± 0.046
- protein stability index (san1∆): 2.61 ± 0.067
- protein stability index (ubr1∆): 3 ± 0.063
